The values that follow come from patent publication US20260055190A1, “ANTIBODIES FOR PLATELET FCyRIIA AND RELATED METHODS OF USE” (UNIVERSITY OF VERMONT AND STATE AGRICULTURAL COLLEGE, priority 2022, published 2026).

“Also recorded” adds a separate entry of the source.

In one experiment the test system is FcγRIIa. As to the kind of experiment: Phosphorylation of FcγRIIa during platelet activation (immunoprecipitation, Western blot with anti-phosphotyrosine 4G10). The experiment is classed as cell-based, human. As for the experimental part:
FIGS. 1A-1E are western blots and graphs showing that platelet activation results in FcγRIIa being phosphorylated: Platelets (2×10^8 in 0.5 ml) from low-risk subjects isolated with the use of gel filtration were exposed to no agonist (FIG. 1E) or to thrombin (50 nM) (FIG. 1A), convulxin (10 ng/ml) (FIG. 1B), ADP (25 μM) (FIG. 1C), and PAF (100 nM) (FIG. 1D) for selected intervals before preparation of platelet lysates. FcγRIIa was separated by immunoprecipitation and Western blots were probed with an antiphosphotyrosine antibody (4G10), stripped, and re-probed with anti-FcγRIIa to confirm equal loading (data not shown). Fluorescence intensity of bands was quantified with the use of a Li-Cor system. Results (n=3-5 for each condition) are peak intensity that is not altered by adjusting the contrast of the image or the size of the area of interest, and were compared with those obtained when no agonist was used (Student's t test, *p<0.05, **p<0.01). […]
Immunoprecipitation was performed overnight at 4° C. with the use of goat anti-CD32A/C (Santa Cruz Biotechnology, Santa Cruz, Calif.) or a mouse anti-phosphotyrosine conjugated with magnetic beads (4G10, Millipore, Billerica, Mass.). […] Bands were detected with the use of use of a Li-Cor Odyssey Infrared Imaging system (Li-Cor Biosciences, Lincoln, Nebr.) or chemiluminescence (Amersham/General Electric Healthcare, Piscataway, N.J.).
On the technique in general: In western blotting, separated proteins are transferred to a membrane and probed.

For experiment [1], the target named is FcγRIIa on non-fixed human platelets (also as present in platelet lysates) (human) (UniProt P12318). As to the kind of experiment: cell-based or functional assay.
In experiment [2] the test system is human stem cell derived Megakaryocytes. As to the kind of experiment: IFNγ effect on FcγRIIa expression by human stem cell derived megakaryocytes. The experiment is classed as cell-based. Conditions: IFNγ treatment, FIG. 11. The text has this:
The graphs on the lower aspect of the figure show evidence of differentiation of the cells into megakaryocytes.

The subject of another experiment is Megakaryocyte cell line. As to the kind of experiment: IFNγ effect on FcγRIIa expression by megakaryocyte cell line. The experiment is classed as cell-based. Conditions: IFNγ treatment, FIG. 10. The text has this: The graphs on the lower aspect of the figure show evidence of differentiation of the stem cells into megakaryocytes.
In experiment [3] the target is T1, FcγRIIa on non-fixed human platelets (also as present in platelet lysates) (human, UniProt P12318 34-317).
T1 construct: Endogenous receptor of platelets from human subjects; In immunoprecipitation experiments the receptor came from platelet lysates; also called platelet FcγRIIa; CD32
T1 sequence: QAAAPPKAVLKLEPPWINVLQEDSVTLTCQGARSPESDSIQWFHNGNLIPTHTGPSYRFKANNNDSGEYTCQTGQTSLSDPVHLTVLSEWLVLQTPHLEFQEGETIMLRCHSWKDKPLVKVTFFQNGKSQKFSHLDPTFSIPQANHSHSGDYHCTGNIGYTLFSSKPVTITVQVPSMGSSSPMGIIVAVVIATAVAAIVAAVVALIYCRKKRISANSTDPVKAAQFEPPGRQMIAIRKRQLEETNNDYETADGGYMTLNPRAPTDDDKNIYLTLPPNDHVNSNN
As to the kind of experiment: platelets of two subjects, non-fixed (FIG. 29).

For experiment [4], the target named is T2, FcγRIIa on formaldehyde-fixed human platelets (human, UniProt P12318 34-317, exposed to formaldehyde fixative (residues not stated)).
T2 construct: Same receptor as m3, but on platelets fixed before exposure to the antibody; also called FcγRIIa on fixed platelets
T2 sequence: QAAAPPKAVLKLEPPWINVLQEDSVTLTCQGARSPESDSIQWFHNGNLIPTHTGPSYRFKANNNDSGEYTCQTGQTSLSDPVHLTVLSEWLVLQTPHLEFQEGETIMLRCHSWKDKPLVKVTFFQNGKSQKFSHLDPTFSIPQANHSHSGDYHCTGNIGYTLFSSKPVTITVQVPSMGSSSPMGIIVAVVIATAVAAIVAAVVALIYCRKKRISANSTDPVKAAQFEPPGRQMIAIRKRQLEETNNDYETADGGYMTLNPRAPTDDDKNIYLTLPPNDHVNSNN
As to the kind of experiment: platelets of two subjects, fixed (FIG. 29).

The target of the next experiment is T3, FcγRIIa on platelets (Homo sapiens, UniProt P12318).
T3 construct: endogenous in cells; host or cells: platelets from subjects' blood samples, formaldehyde-fixed or non-fixed
T3 sequence (P12318 34-317): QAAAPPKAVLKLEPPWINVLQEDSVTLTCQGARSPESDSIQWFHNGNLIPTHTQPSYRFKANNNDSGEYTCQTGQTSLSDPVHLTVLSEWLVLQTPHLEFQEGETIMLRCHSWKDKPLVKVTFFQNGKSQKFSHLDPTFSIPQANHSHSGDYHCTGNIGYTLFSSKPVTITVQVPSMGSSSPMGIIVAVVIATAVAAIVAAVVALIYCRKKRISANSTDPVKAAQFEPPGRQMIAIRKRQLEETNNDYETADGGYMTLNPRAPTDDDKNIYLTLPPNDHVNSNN
As to the kind of experiment: Flow cytometry binding/quantification of FcγRIIa on fixed and non-fixed platelets. The note with it: FIG. 29. The text has this:
One objective was to identify an antibody that was capable of quantifying FcγRIIa on the surface of platelets that were fixed, similar to quantification of FcγRIIa on non-fixed platelets. To make this assessment, selected antibodies were fluorochrome labeled. An objective was to identify a clone that could quantify FcγRIIa on the surface of fixed platelets within 10% of the quantification of previously-known antibodies on non-fixed platelets. Based on these experiments, two clones were identified, they produced the antibodies FcYRIIa-5G1 and FcYRIIa-11F9 described above.
Lysis of red blood cells can also be performed by the addition of 3% acetic acid (120 μl) to 5 μl of blood. • Incubate for 15 minutes • Add 800 μl PBS • Centrifuge for 2 minutes at 1,200 g • Decant liquid • Re-suspend platelet pellet in 1,000 μl PBS • Centrifuge for 2 minutes at 1,200 g • Decant liquid • Re-suspend platelet pellet in 1,000 μl PBS • Centrifuge for 2 minutes at 1,200 g • Re-suspend platelet pellet in 800 μl PBS with 0.2% BSA and store platelets at room temperature for at least 1 hour before assay (blocking step) • Assay tube final volume=35 μl, adding: • 5 μl of re-suspended platelet • 0.5 μg of 5G1-PE antibody • 2 μl of CD42bPECy5 (Becton Dickinson) • QS with PBS/BSA 0.2% • Incubate antibodies and platelets for 1 hours at room temperature • Dilute with 500 μl of PBS • Analyze with flow cytometry
• Analyze platelet samples using template 032522 FCquant 5G1R-PE 375V_T. Set acquisition volume to 200 ul and run samples at 200 ul/min. count 10,000 events in platelet gate (CD42b positive events). • Platelets are first gated on a FSC SSC plot • A second gate for CD42b PECY5 positive events is created • A histogram plot gated on the CD42b positive events is created. A gate is set to the right of a non-immune IgG control. The x-mean of the histogram gate positive for 5G1R-PE binding is reported • Assay tube for IgG control, adding: • 5 μl of re-suspended platelet • 2 μl of IgG-PE • 2 μl of CD42bPECy5 (Becton Dickinson) • 26 μl PBS/BSA 0.2% […]

The target of experiment [5] is T1, FcγRIIa on non-fixed human platelets …. As to the kind of experiment: immunoprecipitation with platelet lysates.
For experiment [6], the target named is T2, FcγRIIa on formaldehyde-fixed human …. As to the kind of experiment: fluorochrome labeled antibody on fixed platelets.

In the case of `Nc1ncnc2c1ncn2[C@@H]1O[C@H](COP(=O)(O)OP(=O)(O)O)[C@@H](O)[C@H]1O` [ADP, adenosine diphosphate], the “time after exposure at which phosphorylation of FcγRIIa was greatest” value with FcγRIIa (platelets from low-risk subjects, thrombin 50 nM, convulxin 10 ng/ml, ADP 25 μM, PAF 100 nM) lay within 3 to 5 min.
On to `CC(C)(C)n1nc(-c2ccc(Cl)cc2)c2c(N)ncnc21` [PP2], for which the “phosphorylation of FcγRIIa during platelet activation” value in the experiment on FcγRIIa (IV.3 Fab 100 μg/ml, PP2 20 μM) is “prevented phosphorylation of FcγRIIa”.
Regarding `CCCCS(=O)(=O)N[C@@H](Cc1ccc(OCCCCC2CCNCC2)cc1)C(=O)O` [tirofiban], the “agonist-induced activation of platelets” value with platelets (agonists thrombin, convulxin, ADP, PAF, PAC-1 binding or P-selectin, IV.3 100 μg/ml, PP2 20 μM, tirofiban 0.5 μg/ml) is listed as “did not attenuate the activation of platelets”. Also, in the experiment on platelets (summary in words), the “activation of platelets caused by coagulation Factor XIII” value was “abolished” and the “amplification of platelet activation induced by fibrinogen” value was “not by tirofiban”. For the same molecule, in the experiment with platelets (tirofiban 0.5 μg/ml), the “binding of PAC-1 to platelets” value is listed as “blocked completely the binding of PAC-1 to platelets; also recorded: abolished binding of PAC-1 to platelets”. The “agonist-induced surface expression of P-selectin” value in the experiment with platelets (tirofiban, n=3 subjects, FIG. 5D) was “did not attenuate agonist-induced P-selectin expression”.
Take Fab fragment of IV.3: in [1], the ADP induced activation of platelets with added fibrinogen after pretreatment with IV.3 (100 µg/ml), fold induction stood at 0.9 fold and the ADP-induced activation of platelets with added Factor XIII after pretreatment with IV.3 (100 µg/ml), fold induction is 0.7 fold.
Consider “IFNγ: cytokine that increases FcγRIIa expression by megakaryocytes”, for which, in experiment [2], the “expression of FcγRIIa by human stem cell derived Megakaryocytes” value is “increases the expression of FcγRIIa”. In the experiment on Megakaryocyte cell line, the “expression of FcγRIIa by Megakaryocyte cell line” value is recorded as “increases the expression of FcγRIIa”.
On to “coagulation Factor XIII (from UniProt P00488 2-732) (enzyme)”, for which the ADP-induced activation of platelets (surface expression of P-selectin), fold induction in experiment [1] came to 3.9 fold.
With “fibrinogen (from UniProt P02671 20-629; P02675 31-491; P02679 27-437)”, in [1], the ADP induced activation of platelets (surface expression of P-selectin), fold induction was 1.5 fold.

B1: Antibody FcYRIIa-5G1 (antibody, V domains shown)
VH: EVQLQESGPELVKPGASVKISCKASGYTFTTYYIHWVKQRPGQGLEWIGWIFPGSSNTFYNEKFKGKATLTADTSAITAYMQLNSLTSEDSAVYFCSRYYYDYGYWGQGTLVTVSA
VL: ENVLTQSPAIMSASPGEKVTMTCSASSSVRYMQWYQQKSNTSPKLWIYDTSKLASGVPGRFSGSGSGNSYFLTISSMEAEDVATYHCFQGSGYPLTFGGGTKLEIK
notes: Monoclonal antibody from a mouse hybridoma; Fluorochrome (phycoerythrin) labelled for flow cytometry; also called 5G1 antibody; 5G1-PE
As to B1, the binding result in experiment [3] and in [4] was “binds” in each case.

B2: FcYRIIa-5G1: monoclonal antibody binding FcγRIIa; heavy chain SEQ ID NO 4, light chain SEQ ID NO 9 (antibody, V domains shown)
VH: EVQLQESGPELVKPGASVKISCKASGYTFTTYYIHWVKQRPGQGLEWIGWIFPGSSNTFYNEKFKGKATLTADTSAITAYMQLNSLTSEDSAVYFCSRYYYDYGYWGQGTLVTVSA
VL: ENVLTQSPAIMSASPGEKVTMTCSASSSVRYMQWYQQKSNTSPKLWIYDTSKLASGVPGRFSGSGSGNSYFLTISSMEAEDVATYHCFQGSGYPLTFGGGTKLEIK
As for B2, the “binding to FcγRIIa on fixed platelets compared with non-fixed platelets” value with FcγRIIa on platelets is recorded as “binds to a greater extent to FcγRIIa on fixed platelets”. Also, the “binding to FcγRIIa on fixed platelets” value with FcγRIIa on platelets (fixed platelets, two subjects) is “binds at a higher level on fixed platelets”. In addition, the “binding to FcγRIIa on non-fixed platelets versus commercially available antibody FLI8.26” value with FcγRIIa on platelets (non-fixed platelets, two subjects) is on record as “binds to a lesser extent than the commercially available antibody”.

B3: Antibody FcYRIIa-11F9 (antibody, V domains shown)
VH: EVQLQESGPELVKPGASVRISCKASGYTFTNSYMHWVKQRPGQGLEWIGWIYPENINTYYNEKFKGKATLTADRSSSTAYMQLNSLASEDSAVYFCARFYYGFGYWGQGTTLTVSS
VL: DIVMTQSHKFMSTSVGDRVIITCKASQNVISAVAWYQQKPGHSPKLLIYWASTRHTGVPDRFTGSGSGTDFTLTINSVQSEDLADYFCQQYGRYPYTFAGGTKLEIK
notes: Monoclonal antibody from a mouse hybridoma; also called 11F9 antibody
Regarding B3, the binding result in experiment [5] and in [6] was “binds” in each case.
